Results as given in patent US11407825B2, “NaPi2b-targeted polymer antibody-drug conjugates and methods of use thereof” (Mersana Therapeutics, Inc., priority 2018, dated 2022).

Columns and labels:
[1] = Plasma PK profile in patients dosed with XMT-1536; assay type: in vivo, human; conditions: 30 patients, 3 to 40 mg/m^2, total antibody, conjugated drug, free drug, AF
Protocol: The PK profile of the active ingredient of XMT-1536, its release product and selected metabolites are determined for each patient by non-compartmental analysis using standard PK software (e.g., Phoenix WinNonlin). PK parameters per patient include time of maximum observed concentration (tmax), maximum concentration (Cmax), and area under the concentration curve for the last measurable concentration (AUC0-last). When the terminal elimination phase is identified, additional parameters such as elimination half-life, clearance, and volume of distribution are determined.
The plasma PK profile for the analytes (total antibody; conjugated drug (AF-HPA); free drug (AF-HPA) and the drug metabolite auristatin F (AF)) was determined in blood samples from 30 patients (3 mg/m^2, n=1; 6 mg/m^2, n=1; 12 mg/m^2, n=7; 20 mg/m^2, n=15; 30 mg/m^2, n=5; 40 mg/m^2, n=1). […] The PK characteristics is consistent with that reported for other approved antibody-drug conjugates or those currently in clinical development.

NaPi2b expressing tumors = assay: Phase 1b study of XMT-1536: tumor response per RECIST version 1.1; assay type: in vivo, human; conditions: for decrease in diameter of target lesions: DL4A (20 mg/m^2)
Text: The study presented herein is an open label, multi-center Phase 1b study of XMT-1536 administered as an intravenous infusion once every three or four weeks. The dose escalation (DES) part of the study will establish the maximum tolerated dose (MTD) or recommended Phase 2 dose (RP2D) for XMT-1536 in patients with a number of tumor types likely to express NaPi2b, with a focus on patients with platinum-resistant ovarian cancer and non-squamous non-small cell lung cancer (NSCLC). […] The RP2D may differ from the MTD and may take into account tolerability, pharmacokinetic and pharmacodynamic measures, and efficacy of XMT-1536 based on RECIST 1.1. After the first cycle, patients may continue to receive XMT-1536 until disease progression provided the drug is well-tolerated and patients continue to derive clinical benefit in the opinion of the Investigator. The DES segment of the study utilized an accelerated titration design. The first 3-week cycle of treatment constitutes the dose limiting toxicity (DLT) evaluation period. For the first two dose levels, a minimum of 1 patient was treated at each dose level. If this patient experiences a treatment-emergent adverse event of Grade 2 or higher, 2 additional patients will be added at this dose level, and the study will subsequently follow a 3+3 design, as described below. […] Starting with Dose Level 3, the study will follow a standard 3+3 design, with 3 patients enrolled initially at each dose level. […] However, in the event of 1 DLT, 3 additional patients will be enrolled at the same dose level. Any dose level with 2 or more DLTs will be considered to exceed the MTD and subsequent patients will be enrolled at lower dose level(s). After the first cycle, patients may continue to receive XMT-1536 until disease progression if the drug is well-tolerated and patients continue to derive clinical benefit in the opinion of the Investigator.
All adverse events will be graded according to the National Cancer Institute (NCI) Common Terminology Criteria version (CTCAE v4.03). The observation period for DLTs is 56 days, between Day 1 through end of Cycle 2 which includes the pre-dose assessments before receiving the Cycle 3 dose. In general, adverse events Grade ≥3 are DLTs with modifications for the following criteria: neutropenia hematologic toxicities, gastrointestinal toxicities, hepatic toxicities, and electrolyte imbalances. XMT-1536-related toxicity that delays initiation of Cycle 3 by more than 2 weeks, hospitalization to treat an infusion-related reaction, and any toxicity that prompts modification of the dose to be administered in Cycle 3 are also DLTs. Blood sampling will be performed to determine plasma PK parameters of XMT-1536, its release product auristatin F-HPA, and select metabolites. Testing for anti-drug antibodies (ADA) and neutralizing antibodies (nAb) will be performed. Tumor responses will be Investigator-assessed using Response Evaluation Criteria in Solid Tumors (RECIST), version 1.1, at the end of Cycle 2 and every 2 cycles thereafter.
In both segments of the study assessments with computerized tomography (CT) scans and RECIST version 1.1 criteria are performed at the end of Cycle 2 and at the end of every even-numbered cycle thereafter. Patients are continuously evaluated for adverse events, the use of concomitant medications, and the occurrence of infusion reactions in any cycle. Pharmacokinetic profiles of XMT-1536 and select release products/metabolites and the development of anti-drug antibodies are evaluated. RECIST version 1.1, is used to measure tumor response. The objective response rate (ORR—rate of complete response [CR] and partial response [PR]) and disease control rate (DCR—rate of CR, PR, and stable disease [SD]) will be measured for each cohort. Response duration, progression-free survival (PFS) and overall survival (OS) is estimated.
The primary analysis of efficacy is performed using both DES and EXP data. […]

[2] = All NSCLC, N 3, RECIST version 1.1
[3] = All Ovarian Cancer (OC), N 19, RECIST version 1.1
[4] = NSCLC ≥ 20 mg/m^2, N 2, RECIST version 1.1
[5] = OC + NSCLC ≥ 20 mg/m^2, N 18, RECIST version 1.1
[6] = OC ≥ 20 mg/m^2, N 16, RECIST version 1.1
[7] = OC ≥ 30 mg/m^2, N 7, RECIST version 1.1
[8] = ovarian cancer and lung adenocarcinoma, ≥20 mg/m^2 (N=18)

B1: XMT-1536: about 10-15 molecules of auristatin F-hydroxypropyl amide conjugated to a cysteine moiety of NaPi2b monoclonal antibody XMT-1535 via a PHF scaffold (conjugate, chains of the INN, looked up)
VH: QVQLVQSGAEVVKPGASVKMSCKASGYTFTGYNIHWVKQAPGQGLEWIGAIYPGNGDTSYKQKFRGRATLTADTSTSTVYMELSSLRSEDSAVYYCARGETARATFAYWGQGTLVTVSS
VL: DIQMTQSPSSLSASVGDRVTITCSASQDIGNFLNWYQQKPGKTVKVLIYYTSSLYSGVPSRFSGSGSGTDYTLTISSLQPEDFATYYCQQYSKLPLTFGQGTKLELK
modifications: auristatin F-hydroxypropyl amide via PHF scaffold
notes: about 10-15 molecules of auristatin F-hydroxypropyl amide conjugated to a cysteine moiety of NaPi2b monoclonal antibody XMT-1535 via a PHF scaffold
In the case of B1, the “exposure with increasing doses, normalized to dose” value [1] is reported as “nearly dose proportional”, the “DCR (PR + SD)” value (NaPi2b expressing tumors; All NSCLC, N 3) is reported as 67% and the “DCR (PR + SD), patients” value (NaPi2b expressing tumors; All NSCLC, N 3) is reported as 2. For the same molecule, the PD (NaPi2b expressing tumors; [2]) was 33%, the “PD, patients” value (NaPi2b expressing tumors; [2]) was 1 and the PR (NaPi2b expressing tumors; [2]) was 0 (0%). For the same molecule, the “PR, patients” value (NaPi2b expressing tumors; [2]) was 0 (0%), the “DCR (PR + SD)” value (NaPi2b expressing tumors; All Ovarian Cancer (OC), N 19) was 58% and the “DCR (PR + SD), patients” value (NaPi2b expressing tumors; All Ovarian Cancer (OC), N 19) was 11. For the same molecule, the PD (NaPi2b expressing tumors; [3]) was 42%, the “PD, patients” value (NaPi2b expressing tumors; [3]) was 8 and the PR (NaPi2b expressing tumors; [3]) was 16%. For the same molecule, the “PR, patients” value (NaPi2b expressing tumors; [3]) was 3, the “patients who reached partial remission” value (NaPi2b expressing tumors; DL 4A) was “one” and the “DCR (PR + SD)” value (NaPi2b expressing tumors; NSCLC ≥ 20 mg/m^2, N 2) was 100%. For the same molecule, the “DCR (PR + SD), patients” value (NaPi2b expressing tumors; NSCLC ≥ 20 mg/m^2, N 2) was 2, the PD (NaPi2b expressing tumors; [4]) was 0 (0%) and the “PD, patients” value (NaPi2b expressing tumors; [4]) was 0 (0%). The PR (NaPi2b expressing tumors; [4]) was 0 (0%), the “PR, patients” value (NaPi2b expressing tumors; [4]) was 0 (0%) and the “DCR (PR + SD)” value (NaPi2b expressing tumors; OC + NSCLC ≥ 20 mg/m^2, N 18) was 61%. The “DCR (PR + SD), patients” value (NaPi2b expressing tumors; OC + NSCLC ≥ 20 mg/m^2, N 18) was 11, the PD (NaPi2b expressing tumors; [5]) was 39% and the “PD, patients” value (NaPi2b expressing tumors; [5]) was 7. For the same molecule, the PR (NaPi2b expressing tumors; [5]) was 17%, the “PR, patients” value (NaPi2b expressing tumors; [5]) was 3 and the “DCR (PR + SD)” value (NaPi2b expressing tumors; OC ≥ 20 mg/m^2, N 16) was 57%. For the same molecule, the “DCR (PR + SD), patients” value (NaPi2b expressing tumors; OC ≥ 20 mg/m^2, N 16) was 9, the PD (NaPi2b expressing tumors; [6]) was 43% and the “PD, patients” value (NaPi2b expressing tumors; [6]) was 7. For the same molecule, the PR (NaPi2b expressing tumors; [6]) was 19%, the “PR, patients” value (NaPi2b expressing tumors; [6]) was 3 and the “DCR (PR + SD)” value (NaPi2b expressing tumors; OC ≥ 30 mg/m^2, N 7) was 71%. For the same molecule, the “DCR (PR + SD), patients” value (NaPi2b expressing tumors; OC ≥ 30 mg/m^2, N 7) was 5, the PD (NaPi2b expressing tumors; [7]) was 28% and the “PD, patients” value (NaPi2b expressing tumors; [7]) was 2. For the same molecule, the PR (NaPi2b expressing tumors; [7]) was 28%, the “PR, patients” value (NaPi2b expressing tumors; [7]) was 2 and the “dose response of best response by RECIST (waterfall plot)” value (NaPi2b expressing tumors; change in tumor size by dose level) was “there appears to be a dose response”. The anti-tumor activity (NaPi2b expressing tumors; conclusions) was “early signs of anti-tumor activity”, the objective responses (NaPi2b expressing tumors; doses of 20 mg/m^2 and higher) was “Objective responses have been observed” and the “clinical activity based on objective responses and duration of treatment” value (NaPi2b expressing tumors; doses of 20 mg/m^2 or higher) was “clinical activity was observed”. It also gave a DCR (NaPi2b expressing tumors; [8]) of 61%, an ORR (NaPi2b expressing tumors; [8]) of 17% and a PRs (NaPi2b expressing tumors; [8]) of 17%. The “PRs, patients” value (NaPi2b expressing tumors; [8]) was 3, the SDs (NaPi2b expressing tumors; [8]) was 44% and the “SDs, patients” value (NaPi2b expressing tumors; [8]) was 8. For the same molecule, the disease control rate (NaPi2b expressing tumors; patients treated with at least 12 mg/m^2, every three weeks, RECIST version 1.1) was 67%, the “decrease in diameter of target lesions” value (NaPi2b expressing tumors; person, platinum-resistant high-grade serous ovarian cancer, end of Cycle 2) was 40% and the “decrease in diameter of target lesions” value (NaPi2b expressing tumors; same patient, end of Cycle 3) was 75%. For the same molecule, the “patients who reached nearly partial remission” value (NaPi2b expressing tumors; starting at DL 5) was “two”, the “patients with stable disease (SD) as best response” value (NaPi2b expressing tumors; ten patients with post-treatment restaging scans, as of February 2019) was 9 and the “outcome by dose level (swimmers plot)” value (NaPi2b expressing tumors; time on study by dose level and tumor type) was “At lower doses the majority of patients came off study because of progressive disease, but starting at DL4, most patients had stable disease”.
